The results in this text go back to paper PMC11032491, “A conserved strategy to attack collagen: The activator domain in bacterial collagenases unwinds triple-helical collagen” (Proceedings of the National Academy of Sciences of the …, 2024).

Experiment [1] concerns the target type I gelatin (heat-denatured acid-soluble type I atelocollagen from bovine hides) (bovine) (UniProt P02453). Briefly: ELISA; indirect ELISA; gelatin coated on the plate (5 µg/ml); His-tagged collagenase variant in PBST with 1% BSA, serially diluted 1:3, 140 min at 37 °C; detected with anti-His-HRP; Hill fit; apparent Kd.
The target of experiment [2] is soluble type I collagen (acid-soluble type I atelocollagen from bovine hides) (bovine) (UniProt P02453). Briefly: ELISA; indirect ELISA; soluble type I collagen coated on the plate (5 µg/ml); His-tagged collagenase variant in PBST with 1% BSA, serially diluted 1:3, 140 min at room temperature (25 °C); detected with anti-His-HRP; Hill fit; apparent Kd. (In general: ELISA stands for enzyme-linked immunosorbent assay.)
Chain of soluble type I collagen (acid-soluble type I atelocollagen from bovine hides) (bovine) (P02453 162-1217, chain 1 of 2): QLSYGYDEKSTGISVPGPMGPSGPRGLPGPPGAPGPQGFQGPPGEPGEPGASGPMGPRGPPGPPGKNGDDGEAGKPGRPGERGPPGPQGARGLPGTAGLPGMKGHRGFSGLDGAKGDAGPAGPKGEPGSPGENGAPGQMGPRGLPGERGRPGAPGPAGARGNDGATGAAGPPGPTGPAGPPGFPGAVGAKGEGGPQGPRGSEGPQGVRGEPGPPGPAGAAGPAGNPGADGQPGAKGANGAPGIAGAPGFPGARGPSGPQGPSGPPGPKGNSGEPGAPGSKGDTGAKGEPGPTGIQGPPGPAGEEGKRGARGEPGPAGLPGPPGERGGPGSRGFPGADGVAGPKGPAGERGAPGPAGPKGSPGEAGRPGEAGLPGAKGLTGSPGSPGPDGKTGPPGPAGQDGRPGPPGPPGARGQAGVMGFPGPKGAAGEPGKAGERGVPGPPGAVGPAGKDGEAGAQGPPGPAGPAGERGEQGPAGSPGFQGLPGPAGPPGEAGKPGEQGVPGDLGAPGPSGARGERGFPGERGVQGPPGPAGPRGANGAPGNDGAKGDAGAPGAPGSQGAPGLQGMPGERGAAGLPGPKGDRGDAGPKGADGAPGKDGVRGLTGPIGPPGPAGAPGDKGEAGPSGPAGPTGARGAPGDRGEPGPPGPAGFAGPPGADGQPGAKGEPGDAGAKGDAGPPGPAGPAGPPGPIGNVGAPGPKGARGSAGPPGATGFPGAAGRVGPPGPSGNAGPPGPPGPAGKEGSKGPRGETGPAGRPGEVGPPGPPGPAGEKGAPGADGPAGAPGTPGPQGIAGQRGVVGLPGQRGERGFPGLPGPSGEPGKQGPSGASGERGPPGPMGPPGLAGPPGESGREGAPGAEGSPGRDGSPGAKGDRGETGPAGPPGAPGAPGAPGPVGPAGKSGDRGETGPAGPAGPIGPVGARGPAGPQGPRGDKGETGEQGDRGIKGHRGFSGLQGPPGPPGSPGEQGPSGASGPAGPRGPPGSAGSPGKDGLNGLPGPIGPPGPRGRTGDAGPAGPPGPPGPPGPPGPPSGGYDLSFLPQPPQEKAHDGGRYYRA
Chain of soluble type I collagen (acid-soluble type I atelocollagen from bovine hides) (bovine) (P02465 80-1117, chain 2 of 2, further chain): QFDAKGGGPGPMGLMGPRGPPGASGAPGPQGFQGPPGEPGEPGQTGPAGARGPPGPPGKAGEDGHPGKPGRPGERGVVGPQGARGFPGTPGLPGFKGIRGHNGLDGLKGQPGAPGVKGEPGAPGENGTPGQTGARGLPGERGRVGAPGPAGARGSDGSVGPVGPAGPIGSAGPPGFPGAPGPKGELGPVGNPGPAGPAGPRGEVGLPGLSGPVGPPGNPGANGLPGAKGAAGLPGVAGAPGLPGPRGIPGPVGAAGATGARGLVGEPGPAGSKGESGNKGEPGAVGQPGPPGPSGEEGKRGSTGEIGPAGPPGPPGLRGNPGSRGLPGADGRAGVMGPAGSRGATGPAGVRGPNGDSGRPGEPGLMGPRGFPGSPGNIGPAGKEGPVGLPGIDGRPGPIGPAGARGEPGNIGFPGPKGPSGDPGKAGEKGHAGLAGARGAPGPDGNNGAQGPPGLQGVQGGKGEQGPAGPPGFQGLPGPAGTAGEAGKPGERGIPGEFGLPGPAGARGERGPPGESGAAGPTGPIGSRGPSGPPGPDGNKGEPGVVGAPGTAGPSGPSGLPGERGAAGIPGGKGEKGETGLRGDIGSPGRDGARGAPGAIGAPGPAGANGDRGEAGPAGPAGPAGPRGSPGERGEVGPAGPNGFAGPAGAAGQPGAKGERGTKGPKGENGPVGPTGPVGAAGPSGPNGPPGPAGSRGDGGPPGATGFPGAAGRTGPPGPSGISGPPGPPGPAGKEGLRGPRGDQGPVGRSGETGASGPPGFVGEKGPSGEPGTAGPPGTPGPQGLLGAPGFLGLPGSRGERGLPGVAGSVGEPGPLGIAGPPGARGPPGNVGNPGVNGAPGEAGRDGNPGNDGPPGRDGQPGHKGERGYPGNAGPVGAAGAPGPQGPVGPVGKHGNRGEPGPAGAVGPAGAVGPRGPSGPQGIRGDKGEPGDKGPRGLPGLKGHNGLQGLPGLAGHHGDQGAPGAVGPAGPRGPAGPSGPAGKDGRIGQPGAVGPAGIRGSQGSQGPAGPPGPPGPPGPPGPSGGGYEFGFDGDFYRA

Chain of type I gelatin (heat-denatured acid-soluble type I atelocollagen from bovine hides) (bovine) (P02453 23-1217, chain 1 of 2): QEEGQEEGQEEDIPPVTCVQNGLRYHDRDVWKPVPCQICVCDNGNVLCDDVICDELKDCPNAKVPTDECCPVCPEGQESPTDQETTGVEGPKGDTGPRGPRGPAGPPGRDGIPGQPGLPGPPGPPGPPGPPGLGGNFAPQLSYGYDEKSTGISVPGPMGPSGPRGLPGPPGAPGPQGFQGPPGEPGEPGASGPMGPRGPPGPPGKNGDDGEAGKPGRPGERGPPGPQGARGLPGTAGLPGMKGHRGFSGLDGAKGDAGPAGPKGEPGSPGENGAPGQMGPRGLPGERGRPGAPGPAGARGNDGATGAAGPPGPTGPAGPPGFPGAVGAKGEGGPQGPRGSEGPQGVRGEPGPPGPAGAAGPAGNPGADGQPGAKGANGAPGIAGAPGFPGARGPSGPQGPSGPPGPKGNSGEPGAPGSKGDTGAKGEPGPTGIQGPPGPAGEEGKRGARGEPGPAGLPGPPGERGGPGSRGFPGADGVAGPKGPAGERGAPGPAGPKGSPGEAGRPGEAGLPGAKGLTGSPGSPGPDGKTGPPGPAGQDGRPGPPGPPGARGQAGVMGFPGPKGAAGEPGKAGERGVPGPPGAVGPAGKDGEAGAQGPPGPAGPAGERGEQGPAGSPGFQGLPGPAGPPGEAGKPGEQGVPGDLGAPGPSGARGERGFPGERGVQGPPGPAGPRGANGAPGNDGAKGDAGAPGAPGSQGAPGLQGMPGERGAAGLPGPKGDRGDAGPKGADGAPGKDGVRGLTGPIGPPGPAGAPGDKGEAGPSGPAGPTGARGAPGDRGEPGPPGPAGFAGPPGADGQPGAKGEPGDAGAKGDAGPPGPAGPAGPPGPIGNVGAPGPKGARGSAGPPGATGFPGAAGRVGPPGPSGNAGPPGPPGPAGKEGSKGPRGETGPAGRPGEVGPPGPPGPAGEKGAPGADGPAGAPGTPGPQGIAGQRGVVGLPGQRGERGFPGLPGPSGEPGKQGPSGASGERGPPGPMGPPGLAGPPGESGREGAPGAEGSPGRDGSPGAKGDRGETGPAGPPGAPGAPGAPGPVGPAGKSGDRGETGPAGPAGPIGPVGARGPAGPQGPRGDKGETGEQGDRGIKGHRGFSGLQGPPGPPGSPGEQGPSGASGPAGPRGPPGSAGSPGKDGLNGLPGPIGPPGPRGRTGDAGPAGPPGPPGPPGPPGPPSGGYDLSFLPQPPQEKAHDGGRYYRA
Chain of type I gelatin (heat-denatured acid-soluble type I atelocollagen from bovine hides) (bovine) (P02465 80-1117, chain 2 of 2, further chain): as the sequence (P02465 80-1117, chain 2 of 2, further chain) above

Regarding “ColQ1-CU G472V Y270A (from UniProt B9J3S4 94-965) (domain or fragment)”, the Kd in experiment [1] came to 4.2 µM; in experiment [2], 0.19 µM. In the same order, the values of “ColQ1-CU G472V R169A (from UniProt B9J3S4 94-965) (domain or fragment)” are 2.8 µM and 0.17 µM.

For “ColQ1-CU G472V E166A (from UniProt B9J3S4 94-965) (domain or fragment)”, the Kd in experiment [1] turned out to be 5 µM. On to “ColQ1-CU G472V Y251A (control mutant) (from UniProt B9J3S4 94-965) (domain or fragment)”, for which the Kd is 2.5 µM in experiment [1] and 2.8 µM in experiment [2].

Turning to “ColQ1-CU G472V F123A (from UniProt B9J3S4 94-965) (domain or fragment)”, in experiment [1], the Kd worked out at 1.6 µM.

In the case of “ColQ1-CU G472V N317A (control mutant) (from UniProt B9J3S4 94-965) (domain or fragment)”, the Kd in experiment [1] stood at 2.3 µM; in experiment [2], 2.8 µM. Consider “ColQ1-CU G472V F176A (from UniProt B9J3S4 94-965) (domain or fragment)”, for which the Kd in experiment [1] worked out at 1.2 µM; in experiment [2] it was 0.08 µM. With “ColQ1-CU G472V Y173A (from UniProt B9J3S4 94-965) (domain or fragment)”, the Kd in experiment [1] turned out to be 24 µM. On to “ColQ1-CU G472V Y321A (control mutant) (from UniProt B9J3S4 94-965) (domain or fragment)”, for which the Kd was determined as 2.5 µM in experiment [1] and 4 µM in experiment [2].
